The nature of data set [1]: UDP-glucose:hydroxycinnamate 1-O-glucosyltransferase activity of recombinant proteins from E. coli. Particulars: against all four types of hydroxycinnamic acid used. The data set is classed as biochemical. As for the experimental part: The transformed E. coli was shaking-cultured overnight in 3 ml of LB medium containing 50 μg/ml kanamycin and 34 μg/ml chloramphenicol. This culture broth (500 μl) was inoculated into LB medium (50 ml) and shaking-cultured until absorbance at 600 nm reached 0.4. Then, isopropyl-β-D-thiogalactoside (IPTG) was added to give a final concentration of 0.4 mM. The cells were shaking-cultured at 25° C. for 16 hr and then harvested by refrigerated centrifugation (8000 rpm, 4° C., 20 min). CtGT11-4 protein was partially purified from the cells using Ni-NTA mini-column according to the method recommended by the manufacturer. […]
For measuring enzyme activity, a 30 μl reaction solution containing 100 mM potassium phosphate buffer (pH 7.4), 30 pmole of UDP-glucose, 30 pmole of hydroxycinnamic acid and 15 μl of recombinant protein solution was reacted at 30° C. […] The enzyme reaction products were analyzed by reversed-phase high performance liquid chromatography (Shiseido NanoSpace system) using Develosil C30-UG-5 (1.5 i.d.×250 mm). […] The eluted materials were detected with a PDA detector, and the resultant data were analyzed to thereby quantitatively determine 1-O-acyl-β-D-glucose. […]
LeGT13-20 and LeGT13-30 genes were expressed using pET30Ek/LIC System (Novagen). […] Resultant several clones were analyzed to confirm the nucleotide sequences thereof, and then transformed into E. coli BL21-CodonPlus(DE3)-RP. […]

Data set [2] can be described thus: Acyltransferase activity of purified 3′AT, substrates preternatin C5 and 1-O-p-coumaroyl-β-D-glucose. It counts as biochemical, butterfly pea (Clitoria ternatea). Particulars: 3′AT activity. As for the experimental part:
A reaction solution (20 μl) containing 100 mM phosphate buffer (pH 6.5), 0.4 mM anthocyanin (4 μl), 0.5 mM 1-O-acyl-β-D-glucose (4 μl) and an enzyme solution (8 μl) was reacted at 30° C. The reaction was terminated by adding 4 μl of 1M aqueous hydrochloric acid solution. After addition of 24 μl of 5% acetonitrile containing 0.05 M TFA, the reaction solution was filtered with Millex-LH filter (Millipore) and then analyzed by HPLC by feeding a 10 μl aliquot.
HPLC analysis of anthocyanin acyltransferase reaction products were performed with Develosil ODS-UG-5 column (3.0 i.d.×250 mm; Nomura Chemical) at a column temperature of 35° C. Against an initial solvent that was 0.05 M trifluoroacetate (TFA)-containing 5% acetonitrile (MeCN) aqueous solution, 0.05 M TFA-containing 40% MeCN was added with a linear concentration gradient from 14 to 86% (20 min) and the reaction products were eluted at a flow rate of 0.5 ml/min. The reaction products were detected with PDA and their molecular weights were confirmed by LC-MS/MS. […]

B1: LeGT13-30: lobelia 1-O-acyl-β-D-glucose synthase, 486 amino acid residues, SEQ ID NO: 18 (protein)
chain: MGSLQGTTTVENLTHVFLVSFPGQGHVNPLLRLGKILASKGLLVTFSAPEMVGEIIKGANKYISDDELTPIGDGMIRFEFFSDSLGNTKEDNALRGNMDLYMPQLATFAKKSLSDILVKHQHHGRPVACLINNPFIPWISELAEEFNIPSAVLWVQSCASFSAYYHYHHNLVPFPTENEPERDVQLPSMPLLKYDEIPGFLLPSSPYGFLRRAILGQFKLLSKPICILVESFQELEDDCINYLSTLCPIKPIGPLFINPNVKTGSSIRGDFMKVEDCIDWLNTRADSSVVYISFGSIVYVKQEQITEIARGLADSGLSFLWAFKQPGVDMGLKPPSLPDGFLEEVKGRGKVVEWCSQEAVLGHPAVSCFMSHCGWNSTMEALSSGVPVAAFPIWGDQVTDAKFLVDEFKVGIRMCRGEADINKKVVPREEIARCLLAATSGPKAEELRRNALKWKKAAADSVGAGGSSDRNLEEFVGSIKKGVIGH
modifications: Lobelia erinus cv.Riviera Midnight Blue; Amino acid sequence of UDP-glucose hydroxycinnamic acid 1-O-glucosyltransferase
As to B1, the glucosyltransferase activity entry in data set [1] is “glucosyltransferase activity was confirmed”.

B2: 3′AT protein: acyltransferase purified from butterfly pea petals, transfers aromatic acyl group to glucosyl group at position 3′ of anthocyanin (after Mono Q) (protein)
chain: GTIVEFLPGFDGPLPFVLETGYVGVGEGEDVQVFYYFVESENNPNEDPLMLWLTGGPGCSAFSGLALEIGPLIFKREEYNGGLPNLILRPHSWTKVSSIIFVDLPVSTGFTYARTDAAAQRSDWTLVHHAHEFLRKWLIDHPKFLQNELYIGGDSYSGIPIPVIVQEISQENEKGIQPWINLQGYILGNAITTRREKGYSIPFAHGMALISDELYESLRKNCKGEYLNVDPENVLCSRDIDSYSKATSRISFAHILERTCNSGDIKTSLRRSTIQRHHTKKFLNTNLKLPPLTCRTYANFQCGLWANDDNVRSALHIHKGSIGEWHRCSIRLPFTSDIPNSFEYHVNLSRKGYYRSLIYSGDHDMMVPFLGTQAWIRSLNYSIVDDWRPWNTNGQVAGYTRTYSNRMTYATIKGGGHTAPEFKPEECFAMYSRWISKRPLYENNTMSSYTNLASIL
For B2, the specific activity in data set [2] is listed as 1492.6 pkat/mg.

These data come from patent publication US20090288225A1, “Novel Aromatic Acyltransferase Genes” (Aomori Prefecture, priority 2006, published 2009).
